Test [1] deals with T1, RANKL (Homo sapiens, UniProt O14788).
T1 construct: For ELISA assays, recombinant soluble RANKL and TRAIL, and antibodies directed against these proteins were obtained from PeproTech; purchased PeproTech (Rocky Hill, N.J.)
T1 sequence (O14788 140-317): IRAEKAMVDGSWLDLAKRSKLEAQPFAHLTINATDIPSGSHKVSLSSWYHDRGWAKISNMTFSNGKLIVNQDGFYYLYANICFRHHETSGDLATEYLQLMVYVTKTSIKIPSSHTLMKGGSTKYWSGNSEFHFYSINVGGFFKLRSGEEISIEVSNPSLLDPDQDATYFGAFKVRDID
As to the kind of experiment: ELISA of soluble RANKL binding to wells coated with sFRP-1, sFRP-1 derivatives or sFRP-2. The conditions noted are these: ELISA, coated wells versus BSA. On the procedure:
(§1) ELISA experiments were generally performed as previously described (Uren et al., J. Biol. Chem. 275:4374-4382, 2000), with modifications depending on the sFRP binding partner to be tested. Typically, wells were coated with 0.5 or 1 μg of sFRP-1, blocked with BSA (0.2%, 1%, or 4%) and then incubated with putative binding partner overnight at room temperature. When investigating the binding of peptide/AP chimeras, after aspiration of bacterial broths, wells were washed and incubated with p-nitrophenolphosphate (pNPP). Color development was determined at 405 nm with an ELISA reader. For competition experiments, soluble peptides were preincubated with peptide/AP chimeras in bacterial broth for 30 min at room temperature prior to transfer into ELISA wells coated with sFRP-1 or BSA. When testing RANKL binding to sFRP-1, serial dilutions of soluble RANKL were assayed in replicate. Following overnight incubation at room temperature, RANKL solutions were aspirated and bound RANKL was detected by sequential incubations with primary antibody to RANKL, secondary antibody coupled with AP and pNPP. Similar experimental designs were employed when other TNFα family members were examined for binding to sFRPs, and when sFRP-1 derivatives or sFRP-2 were the binding targets for RANKL.
(§2) The possibility that sFRP-1 (SEQ ID NO: 3) and RANKL interact directly with each other was tested using an ELISA assay. […] RANKL was then incubated in these wells and in adjacent wells that had only been treated with BSA.

Test [2] relates to RAW264.7 cells. As to the kind of experiment: RANKL-induced osteoclast formation in RAW264.7 cells. The class given is cell-based. The note with it: RAW264.7+RANKL. On the procedure: In some instances, experiments were performed either with adult mouse spleen cells or with RAW264.7 cells treated with M-CSF and RANKL as described in Quinn et al., Endocrinology 139:4424-4427, 1998. Where indicated, these assays were conducted in the presence or absence of splenic T cells. T cell fractions were prepared as described in Horwood et al., Journal of Clinical Investigation 101:595-603, 1998.
(§3) The effect of bacterially expressed CRD was assessed in three different cell culture models of osteoclast formation. These were: (1) bone marrow cells+RANKL+M-CSF, (2) the macrophage/monocyte cell line RAW264.7+RANKL, and (3) RAW264.7+TNFα+TGFβ (Horwood et al., Journal of Immunology 166:4915-4921, 2001; Quinn et al., Journal of Bone and Mineral Research. 16, 1787-1794, 2001).

The test system of test [3] is RAW264.7 cells. As to the kind of experiment: RANKL-independent (TNFα-dependent) osteoclast formation in RAW264.7+TNFα+TGFβ. Type of test: cell-based. The protocol:
The effect of sFRP-1 was assessed upon a RANKL-independent method of osteoclast formation using the monocyte/macrophage cell line RAW264.7 (Quinn et al., Journal of Bone and Mineral Research. 16, 1787-1794, 2001) and was compared with that of osteoprotegerin (FIG. 14).
as §3

The subject of another test is bone marrow cells. As to the kind of experiment: Osteoclast formation in bone marrow cells+RANKL+M-CSF. Type of test: cell-based. On the procedure:
as §3

For the next test, the target named is T2, TRAIL (Homo sapiens, UniProt P50591).
T2 construct: For ELISA assays, recombinant soluble RANKL and TRAIL, and antibodies directed against these proteins were obtained from PeproTech; purchased PeproTech (Rocky Hill, N.J.)
As to the kind of experiment: ELISA of TRAIL binding to sFRP-2. The note with it: ELISA format. The protocol: as §1, with “RANKL. […]” for “RANKL.”

Test [4] deals with T3, RANKL (Mus musculus, UniProt O35235).
T3 construct: For ELISA assays, recombinant soluble RANKL and TRAIL, and antibodies directed against these proteins were obtained from PeproTech; purchased PeproTech (Rocky Hill, N.J.)
T3 sequence (O35235 158-316): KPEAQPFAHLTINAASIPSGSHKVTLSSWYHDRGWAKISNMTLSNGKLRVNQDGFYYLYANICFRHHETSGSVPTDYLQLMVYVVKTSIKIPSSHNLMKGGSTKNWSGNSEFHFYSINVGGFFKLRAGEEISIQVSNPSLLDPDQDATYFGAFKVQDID
As to the kind of experiment: ELISA of soluble RANKL binding to wells coated with sFRP-1, sFRP-1 derivatives or sFRP-2. The note with it: RANKL variant with amino-terminal sequence beginning with residue 158. The protocol: as §1, §2
Background: An ELISA detects its analyte on a solid surface through an enzyme-linked reagent.

Test [5] relates to co-cultures of primary osteoblasts and bone marrow cells. As to the kind of experiment: Osteoclastogenesis co-culture of primary osteoblasts and bone marrow cells (TRAP+ cells). The class given is cell-based, mouse. The conditions noted are these: vitamin D3 (10^-8 M) and PGE2 (10^-7 M). On the procedure:
Osteoblastic cells were prepared from the calvaria of newborn mice by digestion with 0.1% collagenase (Worthington Biochemical Co., Freefold, […]) and 0.2% dispase (Godo Shusei, Tokyo, Japan). Bone marrow and spleen cells were obtained from adult and from newborn mice, respectively (Udagawa et al., J. Exp. Med. 182: 1461-1468, 1995). Osteoblastic cells were co-cultured with bone marrow or spleen cells as described previously (Udagawa et al., J. Exp. Med. 182: 1461-1468, 1995). In short, primary osteoblastic cells (2×10^4/well) and nucleated spleen cells (1×10^6/well) or marrow cells (5×10^5/well) were co-cultured in 48-well plates (Corning Glass Inc., Corning, N.Y.) with 0.4 mL of α-MEM (GIBCO/BRL, Grand Island, N.Y.) containing 10% fetal bovine serum (Cytosystems, Castle Hill, NSW, Australia) in the presence of test chemicals. Cultures were incubated in quadruplicate and cells were replenished on day 3 with fresh medium. Osteoclast formation was evaluated after culturing for 6-7 days. Adherent cells were fixed and stained for tartrate-resistant acid phosphatase (TRAP), and the number of TRAP-positive osteoclasts was scored as described (Udagawa et al., J. Exp. Med. 182: 1461-1468, 1995). For TRAP staining, adherent cells were fixed with 4% formaldehyde in PBS for 3 minutes. After treatment with ethanol-acetone (50/50, vol/vol) for 1 minute, the well surface was air dried and incubated for 10 minutes at room temperature in an acetate buffer (0.1 M sodium acetate, pH 5.0) containing 0.01% naphthol AS-MX phosphate (Sigma) as a substrate and 0.03% red violet LB salt (Sigma) as a stain for the reaction product in the presence of 50 mM sodium tartrate. TRAP-positive cells appeared dark red, and those with three or more nuclei were scored as multinucleated and considered as osteoclasts. […] CTR expression was determined either by autoradiography with ^125I-salmon calcitonin or by immunohistochemical localization using an array of antibodies we have developed as described by Quinn et al., Bone 25:1-8, 1999.

The next test addresses TNFα (Homo sapiens, UniProt P01375). As to the kind of experiment: ELISA of TNFα binding to sFRP-1. The conditions noted are these: ELISA format. On the procedure: as §1, with “RANKL. […]” for “RANKL.”

T2 sequence (P50591 39-281 limits assumed, species assumed): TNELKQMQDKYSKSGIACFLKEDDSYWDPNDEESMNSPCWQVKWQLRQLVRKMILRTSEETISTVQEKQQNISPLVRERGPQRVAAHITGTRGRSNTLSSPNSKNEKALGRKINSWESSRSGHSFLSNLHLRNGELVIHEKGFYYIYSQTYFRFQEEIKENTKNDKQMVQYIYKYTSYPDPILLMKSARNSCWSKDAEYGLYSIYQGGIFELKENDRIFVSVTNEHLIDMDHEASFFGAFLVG
TNFα, sequence (P01375 77-233 limits assumed, species assumed): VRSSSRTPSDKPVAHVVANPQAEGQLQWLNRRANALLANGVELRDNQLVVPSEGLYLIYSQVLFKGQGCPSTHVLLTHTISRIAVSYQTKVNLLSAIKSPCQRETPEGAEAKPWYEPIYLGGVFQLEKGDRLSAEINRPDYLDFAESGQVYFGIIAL

B1: bacterially expressed CRD: cysteine-rich domain of sFRP-1, residues 38-166, expressed in bacteria (protein)
chain: FQSDIGPYQSGRFYTKPPQCVDIPADLRLCHNVGYKKMVLPNLLEHETMAEVKQQASSWVPLLNKNCHAGTQVFLCSLFAPVCLDRPIYPCRWLCEAVRDSCEPVMQFFGFYWPEMLKCDKFPEGDVCI
With B1, in the test with RANKL [1], the “binding to RANKL” value is given as “strong”. Moreover, the “effect on osteoclast formation” value with RAW264.7 cells [2] is “mimicked the action of full-length sFRP-1 and with similar potency”; with RAW264.7 cells [3] (RAW264.7+TNFα+TGFβ, RANKL-independent), “mimicked the action of full-length sFRP-1 and with similar potency”; in the test on bone marrow cells it was “mimicked the action of full-length sFRP-1 and with similar potency”.

B2: sFRP-2: recombinant mouse sFRP-2 purified from transfected MDCK cells (protein)
chain: LFLFGQPDFSYKRSNCKPIPANLQLCHGIEYQNMRLPNLLGHETMKEVLEQAGAWIPLVMKQCHPDTKKFLCSLFAPVCLDDLDETIQPCHSLCVQVKDRCAPVMSAFGFPWPDMLECDRFPQDNDLCIPLASSDHLLPATEEAPKVCEACKTKNEDDNDIMETLCKNDFALKIKVKEITYINRDTKIILETKSKTIYKLNGVSERDLKKSVLWLKDSLQCTCEEMNDINAPYLVMGQKQGGELVITSVKRWQKGQREFKRISRSIRKLQC
As to B2, in the test with RANKL [1], the “binding to RANKL” value is “can bind”. In addition, in the test with TRAIL, the “binding to TRAIL” value is “can bind”.

B3: sFRP-1: recombinant human secreted Frizzled-related protein-1 (protein, listed as Homo sapiens)
chain: MGIGRTEGGRRGAALGVLLALGGASGRGLGSEYDYVSFQSDIGPYQSGRFYTKPPQCVDIPADLRLCHNVGYKKMVLPNLLEHETMAEVKQQASSWVPLLNKNCHAGTQVFLCSLFAPVCLDRPIYPCRWLCEAVRDSCEPVMQFFGFYWPEMLKCDKFPEGDVCIAMTPPNATEASKPQGTTVCPPCDNELKSEAIIEHLCASEFALRMKIKEVKKENGDKKIVPKKKKPLKLGPIKKKDLKKLVLYLKNGADCPCHQLDNLSHHFLIMGRKVKSQYLLTAIHKWDKKNKEFKNFMKKMKNHECPTFQSVFK
On to B3, for which, in the test with RANKL [1], the “binding to RANKL” value is given as “bound specifically”. For the same molecule, the “binding to a derivative of RANKL lacking the A-C2 motif” value with RANKL [4] is “observed binding”. For the same molecule, the “reduction of the number of multinucleated TRAP+ cells” value in test [5] (300 ng/mL) is on record as 50%; in test [5] (1.6 ug/mL), 95%. Besides, the “effect on osteoclast formation” value in test [5] is recorded as “dose-dependent inhibitory activity”. The “effect on TNFα-dependent osteoclast formation” value with RAW264.7 cells [3] (present during the first three days of culture) is “inhibited”. The “binding to TNFα” value with TNFα is “can bind”.
